Reference: publication PMC4678854
Residue numbers refer to the chain shown, from its start.

Key:
Experiment in all cases: EMSA
TnsE E522K+D523N = biological target: T1, TnsE E522K+D523N (Escherichia coli (transposon Tn7), UniProt P05845 1-538, E522K;D523N)
T1 sequence: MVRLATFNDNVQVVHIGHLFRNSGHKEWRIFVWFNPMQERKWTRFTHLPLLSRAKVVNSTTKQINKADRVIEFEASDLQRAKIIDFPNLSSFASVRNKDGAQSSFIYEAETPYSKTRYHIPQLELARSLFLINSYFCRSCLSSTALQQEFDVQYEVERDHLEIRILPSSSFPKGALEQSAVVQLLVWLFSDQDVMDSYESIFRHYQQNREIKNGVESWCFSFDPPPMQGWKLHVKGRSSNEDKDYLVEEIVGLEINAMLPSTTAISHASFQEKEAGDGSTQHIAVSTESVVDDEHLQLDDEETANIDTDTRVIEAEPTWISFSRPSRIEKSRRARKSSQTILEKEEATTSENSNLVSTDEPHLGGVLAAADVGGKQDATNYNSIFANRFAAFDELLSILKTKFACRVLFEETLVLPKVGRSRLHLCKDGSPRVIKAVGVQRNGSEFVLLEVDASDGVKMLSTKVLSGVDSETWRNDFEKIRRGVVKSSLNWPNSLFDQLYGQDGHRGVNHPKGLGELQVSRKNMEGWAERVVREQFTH

TnsE G483R = biological target: T2, TnsE G483R (Escherichia coli (transposon Tn7), UniProt P05845 1-538, G483R)
T2 sequence: T1 sequence with G483R, K522E, N523D

TnsE D523N = biological target: T3, TnsE D523N (Escherichia coli (transposon Tn7), UniProt P05845 1-538, D523N)
T3 sequence: T1 sequence with K522E

TnsE E516K = biological target: T4, TnsE E516K (Escherichia coli (transposon Tn7), UniProt P05845 1-538, E516K)
T4 sequence: T1 sequence with E516K, K522E, N523D

TnsE A453V = biological target: T5, TnsE A453V (Escherichia coli (transposon Tn7), UniProt P05845 1-538, A453V)
T5 sequence: T1 sequence with A453V, K522E, N523D

TnsE E522K = biological target: T6, TnsE E522K (Escherichia coli (transposon Tn7), UniProt P05845 1-538, E522K)
T6 sequence: T1 sequence with N523D

TnsE G515R = biological target: T7, TnsE G515R (Escherichia coli (transposon Tn7), UniProt P05845 1-538, G515R)
T7 sequence: T1 sequence with G515R, K522E, N523D

TnsE wild-type = biological target: T8, TnsE wild-type (Escherichia coli (transposon Tn7), UniProt P05845 1-538)
T8 sequence: T1 sequence with K522E, N523D

Measured: binding result

B1: 3' recessed-end DNA substrate (mixed)
DNA 1: CCATTAGCAAGGCCGGAAACGTCACCAATGCAACGATCAGCCAACTAAACTAGGACATCTTTGCC
DNA 2: GGCAAAGATGTCCTAGTTTAGTTGGCTGAT
binds: all assays above
